Experimental data published in the supplement of paper PMC5998384.

Key:
HeLa Kyoto [1] = assay: solubility in G1/S (NP-40 vs SDS abundance) (log2 ratio); higher = more soluble; settings: cell cycle stage: G1/S
HeLa Kyoto [2] = assay: melting temperature (median over replicates), in situ; higher = more thermally stable
HeLa Kyoto [3] = assay: solubility change mitosis vs G1/S (difference of NP-40 vs SDS log2 ratios) (log2 ratio difference); higher = more soluble in mitosis
HeLa Kyoto [4] = assay: thermal stability score vs G1/S (z-score of summed log2 fold changes over temperatures); higher = more thermally stable than in G1/S
[5] = cell cycle stage: early G1 (4.5 h after nocodazole release)
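Throughout, for melting temperature (median over replicates), in situ: HeLa Kyoto cells synchronized by double thymidine or nocodazole block, proteins quantified by TMT10plex mass spectrometry, three independent biological replicates.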
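Throughout, for solubility change mitosis vs G1/S (difference of NP-40 vs SDS log2 ratios): synchronized HeLa Kyoto cells (double thymidine block for G1/S, nocodazole release for mitosis), protein amounts in NP-40 versus SDS lysates quantified by mass spectrometry, three biological replicates.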
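Throughout, for solubility in G1/S (NP-40 vs SDS abundance): HeLa Kyoto cells arrested at G1/S by double thymidine block, proteins quantified by TMT10plex mass spectrometry in mild NP-40 versus SDS extracts, three biological replicates.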
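Throughout, for thermal stability score vs G1/S (z-score of summed log2 fold changes over temperatures): synchronized HeLa Kyoto cells, proteins quantified by TMT10plex mass spectrometry, three biological replicates, mitosis taken 0.5 h after nocodazole release, G1/S directly after double thymidine block.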

Chain of MCTP2 (chain, as listed by the source): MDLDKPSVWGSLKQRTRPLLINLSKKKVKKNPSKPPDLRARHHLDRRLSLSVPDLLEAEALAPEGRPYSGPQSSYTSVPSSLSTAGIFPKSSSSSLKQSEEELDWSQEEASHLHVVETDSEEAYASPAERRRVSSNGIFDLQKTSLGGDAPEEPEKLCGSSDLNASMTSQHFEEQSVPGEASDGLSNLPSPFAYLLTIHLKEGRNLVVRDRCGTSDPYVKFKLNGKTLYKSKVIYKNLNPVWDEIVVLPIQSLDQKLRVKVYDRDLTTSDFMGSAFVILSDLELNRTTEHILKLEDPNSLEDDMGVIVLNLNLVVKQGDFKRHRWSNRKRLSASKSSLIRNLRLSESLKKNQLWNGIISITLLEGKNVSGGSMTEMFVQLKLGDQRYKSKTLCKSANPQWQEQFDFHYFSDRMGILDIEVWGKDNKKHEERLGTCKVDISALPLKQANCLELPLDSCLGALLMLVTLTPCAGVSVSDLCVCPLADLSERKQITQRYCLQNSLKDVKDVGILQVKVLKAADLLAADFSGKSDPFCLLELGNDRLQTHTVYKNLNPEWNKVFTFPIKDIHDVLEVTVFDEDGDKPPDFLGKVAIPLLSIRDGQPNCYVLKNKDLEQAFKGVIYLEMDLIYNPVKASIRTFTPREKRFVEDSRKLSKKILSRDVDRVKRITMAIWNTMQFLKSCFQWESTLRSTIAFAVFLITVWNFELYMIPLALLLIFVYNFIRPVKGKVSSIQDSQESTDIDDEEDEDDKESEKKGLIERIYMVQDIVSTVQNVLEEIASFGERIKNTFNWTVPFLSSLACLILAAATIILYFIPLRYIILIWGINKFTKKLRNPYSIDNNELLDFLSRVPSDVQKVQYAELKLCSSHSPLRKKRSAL

Substance | solubility in G1/S (log2) (HeLa Kyoto [1]) | melting temperature (HeLa Kyoto [2]; cell cycle stage: G1/S) [°C] | melting temperature (HeLa Kyoto [2]; cell cycle stage: mitosis) [°C] | solubility change mitosis (log2) (HeLa Kyoto [3]) | thermal stability score (HeLa Kyoto [4]; [5]) | thermal stability score (HeLa Kyoto [4]; cell cycle stage: mitosis)
MNREDRNVLRMKERERRNQEIQQGEDAFPPSSPLFAEPYKVTSKEDKLSSRIQSMLGNYDEMKDFIGDRSIPKLVAIPKPTVPPSADEKSNPNFFEQRHGGSHQSSKWTPVGPAPSTSQSQKRSSGLQSGHSSQRTSAGSSSGTNSSGQRHDRESYNNSGSSSRKKGQHGSEHSKSRSSSPGKPQAVSSLNSSHSRSHGNDHHSKEHQRSKSPRDPDANWDSPSRVPFSSGQHSTQSFPPSLMSKSNSMLQKPTAYVRPMDGQESMEPKLSSEHYSSQSHGNSMTELKPSSKAHLTKLKIPSQPLDASASGDVSCVDEILKEMTHSWPPPLTAIHTPCKTEPSKFPFPTKESQQSNFGTGEQKRYNPSKTSNGHQSKSMLKDDLKLSSSEDSDGEQDCDKTMPRSTPGSNSEPSHHNSEGADNSRDDSSSHSGSESSSGSDSESESSSSDSEANEPSQSASPEPEPPPTNKWQLDNWLNKVNPHKVSPASSVDSNIPSSQGYKKEGREQGTGNSYTDTSGPKETSSATPGRDSKTIQKGSESGRGRQKSPAQSDSTTQRRTVGKKQPKKAEKAAAEEPRGGLKIESETPVDLASSMPSSRHKAATKGSRKPNIKKESKSSPRPTAEKKKYKSTSKSSQKSREIIETDTSSSDSDESESLPPSSQTPKYPESNRTPVKPSSVEEEDSFFRQRMFSPMEEKELLSPLSEPDDRYPLIVKIDLNLLTRIPGKPYKETEPPKGEKKNVPEKHTREAQKQASEKVSNKGKRKHKNEDDNRASESKKPKTEDKNSAGHKPSSNRESSKQSAAKEKDLLPSPAGPVPSKDPKTEHGSRKRTISQSSSLKSSSNSNKETSGSSKNSSSTSKQKKTEGKTSSSSKEVKEKAPSSSSNCPPSAPTLDSSKPRRTKLVFDDRNYSADHYLQEAKKLKHNADALSDRFEKAVYYLDAVVSFIECGNALEKNAQESKSPFPMYSETVDLIKYTMKLKNYLAPDATAADKRLTVLCLRCESLLYLRLFKLKKENALKYSKTLTEHLKNSYNNSQAPSPGLGSKAVGMPSPVSPKLSPGNSGNYSSGASSASASGSSVTIPQKIHQMAASYVQVTSNFLYATEIWDQAEQLSKEQKEFFAELDKVMGPLIFNASIMTDLVRYTRQGLHWLRQDAKLIS [AFF4] | 0.00478 | 48.6 | 51 | 0.309 | 0.474 | 1.75
MAVAAAAAAAGPAGAGGGRAQRSGLLEVLVRDRWHKVLVNLSEDALVLSSEEGAAAYNGIGTATNGSFCRGAGAGHPGAGGAQPPDSPAGVRTAFTDLPEQVPESISNQKRGVKVLKQELGGLGISIKGGKENKMPILISKIFKGLAADQTQALYVGDAILSVNGADLRDATHDEAVQALKRAGKEVLLEVKYMREATPYVKKGSPVSEIGWETPPPESPRLGGSTSDPPSSQSFSFHRDRKSIPLKMCYVTRSMALADPENRQLEIHSPDAKHTVILRSKDSATAQAWFSAIHSNVNDLLTRVIAEVREQLGKTGIAGSREIRHLGWLAEKVPGESKKQWKPALVVLTEKDLLIYDSMPRRKEAWFSPVHTYPLLATRLVHSGPGKGSPQAGVDLSFATRTGTRQGIETHLFRAETSRDLSHWTRSIVQGCHNSAELIAEISTACTYKNQECRLTIHYENGFSITTEPQEGAFPKTIIQSPYEKLKMSSDDGIRMLYLDFGGKDGEIQLDLHSCPKPIVFIIHSFLSAKITRLGLVA [SNTB1] | 0.0289 | 49.9 | 50.2 | 0.0627 | 0.836 | 0.333
MGLLRIMMPPKLQLLAVVAFAVAMLFLENQIQKLEESRSKLERAIARHEVREIEQRHTMDGPRQDATLDEEEDMVIIYNRVPKTASTSFTNIAYDLCAKNKYHVLHINTTKNNPVMSLQDQVRFVKNITSWKEMKPGFYHGHVSYLDFAKFGVKKKPIYINVIRDPIERLVSYYYFLRFGDDYRPGLRRRKQGDKKTFDECVAEGGSDCAPEKLWLQIPFFCGHSSECWNVGSRWAMDQAKYNLINEYFLVGVTEELEDFIMLLEAALPRFFRGATELYRTGKKSHLRKTTEKKLPTKQTIAKLQQSDIWKMENEFYEFALEQFQFIRAHAVREKDGDLYILAQNFFYEKIYPKSN [HS2ST1] | 0.0386 | 55.1 | 55.5 | 0.0318 | -0.242 | 0.814
MCTP2 | -0.274 | 50.2 | 50.1 | -0.136 | 0.55 | 0.479
MTEADVNPKAYPLADAHLTKKLLDLVQQSCNYKQLRKGANEATKTLNRGISEFIVMAADAEPLEIILHLPLLCEDKNVPYVFVRSKQALGRACGVSRPVIACSVTIKEGSQLKQQIQSIQQSIERLLV [SNU13] | -0.625 | 54.6 | 53 | 1.04 | -3.84 | -7.97
MGIQGGSVLFGLLLVLAVFCHSGHSLQCYNCPNPTADCKTAVNCSSDFDACLITKAGLQVYNKCWKFEHCNFNDVTTRLRENELTYYCCKKDLCNFNEQLENGGTSLSEKTVLLLVTPFLAAAWSLHP [CD59] | -0.814 | 56.8 | 64.9 | -0.0336 | -2.05 | -3.23
MAPSGSLAVPLAVLVLLLWGAPWTHGRRSNVRVITDENWRELLEGDWMIEFYAPWCPACQNLQPEWESFAEWGEDLEVNIAKVDVTEQPGLSGRFIITALPTIYHCKDGEFRRYQGPRTKKDFINFISDKEWKSIEPVSSWFGPGSVLMSSMSALFQLSMWIRTCHNYFIEDLGLPVWGSYTVFALATLFSGLLLGLCMIFVADCLCPSKRRRPQPYPYPSKKLLSESAQPLKKVEEEQEADEEDVSEEEAESKEGTNKDFPQNAIRQRSLGPSLATDKS [TMX1] | -0.0895 | 54.7 | 55.9 | -0.034 | 0.556 | 1.24
